The numbers were not newly measured in patent publication US8501705B2, “Methods and materials for treating autoimmune and/or complement mediated diseases and conditions” (The Board of Regents of the University of Texas System, priority 2003, dated 2013), which cites them from elsewhere.

The target of the series is C3 (Mus musculus, UniProt P01027). The conditions noted are these: inhibition of C3.
Chain of C3 (P01027 25-1663): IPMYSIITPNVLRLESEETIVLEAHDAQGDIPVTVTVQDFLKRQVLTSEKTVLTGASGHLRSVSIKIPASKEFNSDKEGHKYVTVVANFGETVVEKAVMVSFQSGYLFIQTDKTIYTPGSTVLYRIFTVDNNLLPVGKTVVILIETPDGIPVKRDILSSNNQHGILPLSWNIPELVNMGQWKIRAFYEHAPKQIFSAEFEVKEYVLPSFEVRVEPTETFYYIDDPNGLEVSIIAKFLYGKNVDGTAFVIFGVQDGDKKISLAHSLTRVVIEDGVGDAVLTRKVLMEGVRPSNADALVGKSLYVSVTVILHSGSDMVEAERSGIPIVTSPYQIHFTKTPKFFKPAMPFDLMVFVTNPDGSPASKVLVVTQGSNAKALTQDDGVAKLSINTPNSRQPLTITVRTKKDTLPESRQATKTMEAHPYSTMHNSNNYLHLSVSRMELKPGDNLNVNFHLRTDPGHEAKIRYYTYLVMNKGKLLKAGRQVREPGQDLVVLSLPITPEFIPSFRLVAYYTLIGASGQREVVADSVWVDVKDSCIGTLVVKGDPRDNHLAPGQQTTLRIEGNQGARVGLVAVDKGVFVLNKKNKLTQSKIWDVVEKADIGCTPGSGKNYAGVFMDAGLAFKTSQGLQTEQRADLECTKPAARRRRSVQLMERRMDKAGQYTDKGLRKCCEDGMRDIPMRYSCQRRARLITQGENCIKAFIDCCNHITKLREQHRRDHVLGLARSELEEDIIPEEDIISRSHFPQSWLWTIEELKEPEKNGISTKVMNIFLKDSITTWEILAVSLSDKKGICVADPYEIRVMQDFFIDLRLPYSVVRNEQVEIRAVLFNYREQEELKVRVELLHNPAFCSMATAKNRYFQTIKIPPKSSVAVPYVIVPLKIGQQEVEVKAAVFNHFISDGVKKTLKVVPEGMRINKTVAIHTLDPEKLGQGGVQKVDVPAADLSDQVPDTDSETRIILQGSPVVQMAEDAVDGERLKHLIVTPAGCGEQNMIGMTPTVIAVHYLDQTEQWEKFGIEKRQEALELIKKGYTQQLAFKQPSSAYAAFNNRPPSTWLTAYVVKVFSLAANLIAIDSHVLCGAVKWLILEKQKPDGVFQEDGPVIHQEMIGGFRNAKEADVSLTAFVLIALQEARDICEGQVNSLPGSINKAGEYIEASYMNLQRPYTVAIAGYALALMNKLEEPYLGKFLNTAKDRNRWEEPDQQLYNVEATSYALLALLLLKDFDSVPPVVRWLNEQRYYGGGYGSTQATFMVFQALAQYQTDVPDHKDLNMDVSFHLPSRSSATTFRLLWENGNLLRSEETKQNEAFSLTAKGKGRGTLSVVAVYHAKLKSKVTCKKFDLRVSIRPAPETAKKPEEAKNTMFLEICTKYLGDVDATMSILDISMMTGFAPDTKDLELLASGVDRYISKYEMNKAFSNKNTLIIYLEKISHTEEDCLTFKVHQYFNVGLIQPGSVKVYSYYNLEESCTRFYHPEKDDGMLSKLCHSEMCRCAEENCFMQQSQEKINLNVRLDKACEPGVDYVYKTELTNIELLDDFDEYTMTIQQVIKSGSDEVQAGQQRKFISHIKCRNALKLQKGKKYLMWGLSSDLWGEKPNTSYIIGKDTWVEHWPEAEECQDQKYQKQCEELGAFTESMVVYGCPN

Consider cobra venom factor, for which the EAMG disease induction entry is on record as “inhibits disease induction”.
